Results reported in patent publication US9637543B2, “HER3 antibodies and uses thereof” (THE UAB RESEARCH FOUNDATION, priority 2011, dated 2017).
Entries after “also recorded” stand apart in the source; their conditions may differ.

Experiments:
HER3 [1] = target: T1, HER3 (Homo sapiens, UniProt P21860); assay: HER3 autophosphorylation in pancreatic cancer cell lines; type: cell-based; set-up: endogenous in cells; host or cells: N87, BT474, ZR75-30, Panc 2.03, A549 and a panel of human cancer cell lines; conditions: single agents
HER2 [2] = target: T2, HER2 (Homo sapiens, UniProt P04626); assay: NRG1-induced phosphorylation of HER2 in pancreatic cancer cell lines; type: cell-based; set-up: endogenous in cells
[3] = tested on: N87 human gastric cancer xenograft; assay: N87 human gastric cancer xenograft model; type: in vivo; conditions: lapatinib alone versus antibodies alone
HER2 [4] = target: T2, HER2; assay: HER2 autophosphorylation in pancreatic cancer cell lines; type: cell-based; set-up: endogenous in cells; conditions: single agents
HER3 [5] = target: T1, HER3; assay: NRG1-induced phosphorylation of HER3 in pancreatic cancer cell lines; type: cell-based; set-up: endogenous in cells; host or cells: N87, BT474, ZR75-30, Panc 2.03, A549 and a panel of human cancer cell lines
HER2 [6] = target: T2, HER2; assay: HER2 tyrosine phosphorylation ELISA, antibodies with or without lapatinib; type: cell-based; set-up: endogenous in cells; host or cells: N87 gastric cancer cells; ZR75-30 breast cancer cells; conditions: 24 hours; for tyrosine phosphorylation level of HER2: N87 cells; for tyrosine phosphorylation levels of HER2: ZR75-30 cells
[7] = target: T3, HER3-transfected SP 2/0 cells (Homo sapiens, UniProt P21860); assay: Flow cytometry binding specificity on transfected SP 2/0 cells; conditions: EGFR, HER2 or HER3 transfected SP2/0 cells, 1 μg/ml purified antibody
T3 construct: expressed in transfected cells; host or cells: SP 2/0 cells
Protocol: (§1) The average OD values of triplicates are presented. The values for egFR are superimposed on the values for HER2. […] EGFR, HER2 or HER3-transfected SP 2/0 cells were stained with 1 μg/ml of purified antibody, followed by PE-goat anti-mouse IgG.
(§2) An ELISA plate was coated with 1 μg/ml of recombinant soluble EGFR, HER2, or the extracellular domain of HER3.

HER3 [8] = target: T1, HER3; assay: HER3 tyrosine phosphorylation ELISA, antibodies with or without tyrosine kinase inhibitor; type: cell-based; set-up: endogenous in cells; host or cells: N87; tyrosine phosphorylation of HER3: dose or concentration left out as unconfirmed; conditions: 24 hours; for tyrosine phosphorylation levels of HER3: 20 μg/ml antibody
[9] = target: T3, HER3-transfected SP 2/0 cells; assay: Flow cytometry for blocking of NRG1 binding to HER3; conditions: 100 ng/ml biotin-conjugated NRG1, increasing antibody concentrations
Description: (§3) The binding of NRG1 to HER3 (vertical axis) was detected by HRP-streptavidin. […] NRG1 binding was detected by PE-streptavidin. The mean fluorescent intensities (MFI) of NRG1 bound are presented.
(§4) The binding of NRG1 to HER3 was detected by HRP-streptavidin. […] Thus, the 1A5 antibody is herein referred to as a ligand-independent antibody. […] Thus, the 3D4 antibody is herein referred to as a ligand-dependent antibody. […] NRG1 binding was detected by PE-streptavidin.

EGFR = EGFR (Homo sapiens, UniProt P00533); assay: EGFR tyrosine phosphorylation ELISA, antibodies with or without tyrosine kinase inhibitor; conditions: 24 hours
[10] = tested on: A549 human lung cancer xenograft; assay: A549 human lung cancer xenograft model; type: in vivo
recombinant soluble HER3 [11] = target: T4, recombinant soluble HER3 (Homo sapiens, UniProt P21860); assay: ELISA for blocking of NRG1 binding to HER3; conditions: 100 ng/ml biotin-conjugated NRG1, increasing antibody concentrations
T4 construct: coated with 1 μg/ml of recombinant soluble HER3
Description: as §3, §4

recombinant soluble HER3 [12] = target: T4, recombinant soluble HER3; assay: Sandwich ELISA for epitopes (1A5 capture, HRP-3D4 detection); type: binding; conditions: plate coated with 2 μg/ml 1A5, 200 ng/ml HRP-conjugated 3D4
Protocol: An ELISA plate was coated with 2 μg/ml of purified 1A5 and then incubated with indicated concentrations of recombinant soluble HER3 in the presence of 200 ng/ml HRP-conjugated 3D4. The binding of 3D4 to HER3 was detected by chemiluminescence substrate. The average counts per second of triplicates are presented.
An ELISA plate was coated with 2 μg/ml of purified 1A5 and then incubated with increasing concentrations of HER3 in the presence of 200 ng/ml HRP-conjugated 3D4. The binding of 3D4 antibody to HER3 was detected by chemiluminescence.

[13] = target: T5, HER3 (extracellular domain) (Homo sapiens, UniProt P21860); assay: ELISA binding specificity on recombinant soluble EGFR, HER2, HER3; conditions: plate coated with 1 μg/ml recombinant soluble EGFR, HER2 or HER3 extracellular domain
T5 construct: recombinant soluble EGFR, HER2, or the extracellular domain of HER3
Protocol: as §1, §2

HER3 [14] = target: T1, HER3; assay: Functional screen for inhibition of ligand-induced HER3 activation; type: cell-based; set-up: endogenous in cells; host or cells: N87, BT474, ZR75-30, Panc 2.03, A549 and a panel of human cancer cell lines; conditions: human cancer cell lines
Description: Another HER3 antibody was generated by immunizing mice with human HER3 expressing SP 2/0 cells. […] Thus, the 3D4 antibody is a ligand-dependent antibody.

T3 sequence (P21860 20-1342): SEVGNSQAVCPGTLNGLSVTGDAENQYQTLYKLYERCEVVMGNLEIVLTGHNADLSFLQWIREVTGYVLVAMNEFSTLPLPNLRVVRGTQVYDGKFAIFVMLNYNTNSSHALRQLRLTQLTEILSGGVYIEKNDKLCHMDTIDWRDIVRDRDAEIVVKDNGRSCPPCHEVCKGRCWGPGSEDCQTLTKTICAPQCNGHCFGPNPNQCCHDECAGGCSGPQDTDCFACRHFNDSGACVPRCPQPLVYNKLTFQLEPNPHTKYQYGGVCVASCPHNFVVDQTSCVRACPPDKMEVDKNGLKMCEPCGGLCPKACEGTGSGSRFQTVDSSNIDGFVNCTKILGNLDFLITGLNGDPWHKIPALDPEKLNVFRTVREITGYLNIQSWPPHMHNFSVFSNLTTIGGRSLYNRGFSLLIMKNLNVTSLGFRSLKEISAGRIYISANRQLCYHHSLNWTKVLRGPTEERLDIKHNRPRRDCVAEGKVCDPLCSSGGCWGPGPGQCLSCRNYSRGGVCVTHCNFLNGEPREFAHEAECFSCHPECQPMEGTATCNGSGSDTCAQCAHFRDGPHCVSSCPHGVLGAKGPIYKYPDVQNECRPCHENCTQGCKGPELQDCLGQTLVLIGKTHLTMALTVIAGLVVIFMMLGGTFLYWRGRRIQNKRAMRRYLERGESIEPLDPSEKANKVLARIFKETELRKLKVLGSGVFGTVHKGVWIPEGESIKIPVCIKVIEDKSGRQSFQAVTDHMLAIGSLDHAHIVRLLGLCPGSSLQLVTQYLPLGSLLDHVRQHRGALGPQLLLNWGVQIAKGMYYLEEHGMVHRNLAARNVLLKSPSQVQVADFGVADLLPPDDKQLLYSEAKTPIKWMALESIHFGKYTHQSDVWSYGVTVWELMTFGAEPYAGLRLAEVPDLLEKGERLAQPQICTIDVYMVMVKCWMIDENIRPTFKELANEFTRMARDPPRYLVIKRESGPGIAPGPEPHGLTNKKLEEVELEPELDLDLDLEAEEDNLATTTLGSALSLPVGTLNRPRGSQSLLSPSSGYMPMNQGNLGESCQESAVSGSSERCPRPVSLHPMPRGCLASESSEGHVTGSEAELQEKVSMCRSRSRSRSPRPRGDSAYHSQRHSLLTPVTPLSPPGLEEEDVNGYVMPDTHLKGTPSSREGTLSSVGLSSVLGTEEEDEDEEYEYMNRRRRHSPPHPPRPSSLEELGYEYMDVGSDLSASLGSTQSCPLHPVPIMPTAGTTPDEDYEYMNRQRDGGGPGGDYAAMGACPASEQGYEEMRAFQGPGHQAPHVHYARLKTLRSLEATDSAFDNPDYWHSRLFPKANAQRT
T1 sequence (P21860 20-1342): as above
T4 sequence (P21860 20-643 limits assumed): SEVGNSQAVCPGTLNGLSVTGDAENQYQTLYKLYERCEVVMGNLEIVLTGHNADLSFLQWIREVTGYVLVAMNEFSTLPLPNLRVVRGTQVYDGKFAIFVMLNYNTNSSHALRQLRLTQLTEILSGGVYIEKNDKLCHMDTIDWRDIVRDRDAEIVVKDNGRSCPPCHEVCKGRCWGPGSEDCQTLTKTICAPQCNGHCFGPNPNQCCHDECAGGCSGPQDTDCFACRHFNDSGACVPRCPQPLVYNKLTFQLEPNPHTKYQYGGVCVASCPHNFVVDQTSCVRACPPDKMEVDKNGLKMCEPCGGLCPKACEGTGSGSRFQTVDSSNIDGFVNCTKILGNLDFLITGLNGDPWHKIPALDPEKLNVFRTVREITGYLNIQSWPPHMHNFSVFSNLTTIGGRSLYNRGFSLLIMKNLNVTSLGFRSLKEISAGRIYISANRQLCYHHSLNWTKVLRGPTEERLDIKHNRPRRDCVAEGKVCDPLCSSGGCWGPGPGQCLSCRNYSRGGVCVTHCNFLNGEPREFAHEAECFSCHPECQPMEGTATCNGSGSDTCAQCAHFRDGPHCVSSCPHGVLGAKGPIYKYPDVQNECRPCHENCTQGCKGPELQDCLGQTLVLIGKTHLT
T5 sequence (P21860 20-643 limits assumed): as above

C#Cc1cccc(Nc2ncnc3cc(OCCOC)c(OCCOC)cc23)c1 [erlotinib, reference compound]
autophosphorylation of HER3 (HER3 [1]): but not erlotinib and lapatinib inhibited autophosphorylation of HER3

CS(=O)(=O)CCNCc1ccc(-c2ccc3ncnc(Nc4ccc(OCc5cccc(F)c5)c(Cl)c4)c3c2)o1 [lapatinib, reference compound]
NRG1-induced phosphorylation of HER2 (HER2 [2]): inhibited NRG1-induced phosphorylation of HER2; also recorded: inhibited NRG-1-induced phosphorylation of HER2 | tumor volume [3]: reduced tumor volume more than the administration of the combination of 1A5 and 3D4 antibodies | autophosphorylation of HER3 (HER3 [1]): but not erlotinib and lapatinib inhibited autophosphorylation of HER3 | autophosphorylation of HER2 (HER2 [4]): partially inhibited autophosphorylation of HER2 | NRG1-induced phosphorylation of HER3 (HER3 [5]): only partially inhibited NRG1-induced phosphorylation of HER3; also recorded: partially reduced NRG-1-induced phosphorylation | tyrosine phosphorylation level of HER2 (HER2 [6]; 100 nM lapatinib with the antibodies): reduced | tyrosine phosphorylation levels of HER2 (HER2 [6]; 100 nM lapatinib with the antibodies alone or in combination): reduced tyrosine phosphorylation levels

B1: 3D4: ligand-dependent HER3 antibody; light chain variable region SEQ ID NO:9, heavy chain variable region SEQ ID NO:10 (antibody, V domains shown)
VH: MGWSRIFLFLLSIIAGVHCQVQLQQSGPELVKPGASVRISCKASGYTFTNYFLHWMKQRPGQGLEWIGWIYPGNVNTKYSEKFKGKATLTADKSSSTAYMQLSSLTSEDSAVYFCARSTYYSMDYWGQGTSVTVSS
VL: METDTLLLWVLLLWVPGSTGDIVLTQSPASLAVSLGQRATISCRASESVDSYGNSFMNWYQQKPGQPPKVLIYRASNLESGIPARFSGSGSRTDFTLTITPVEADDVATYYCQQSYEDPPTFGGGTKLEIK
NRG1-induced phosphorylation of HER2 (HER2 [2]): inhibited NRG1-induced phosphorylation of HER2; also recorded: inhibited NRG-1-induced phosphorylation of HER2 | binding specificity by flow cytometry [7]: specifically bind HER3 | tyrosine phosphorylation levels of HER3, effect of adding Erlotinib (HER3 [8]; A549 cells, 20 μg/ml antibody with 100 nM Erlotinib): enhanced | tyrosine phosphorylation levels of HER3 (HER3 [8]; A549 cells, without Erlotinib): reduced the tyrosine-phosphorylation levels of HER3 | tyrosine phosphorylation of HER3 (HER3 [8]; N87 cells, without lapatinib): reduced the tyrosine phosphorylation of HER3 | tyrosine phosphorylation of HER3, effect of adding lapatinib (HER3 [8]; N87 cells, with 100 nM lapatinib): enhanced | tyrosine phosphorylation levels of HER3, effect of adding lapatinib (HER3 [8]; ZR75-30 cells, 20 μg/ml antibody with 100 nM lapatinib): enhanced | tyrosine phosphorylation levels of HER3 (HER3 [8]; ZR75-30 cells, without lapatinib): reduced the tyrosine phosphorylation levels of HER3 | blocking of NRG1 binding to HER3 (flow cytometry) [9]: blocked NRG1 binding to HER3; also recorded: blocks ligand binding to HER2 | tyrosine phosphorylation levels of EGFR (EGFR; A549 cells, 20 μg/ml antibody, without Erlotinib): did not affect tyrosine phosphorylation levels of EGFR | tyrosine phosphorylation level of EGFR (EGFR; N87 cells, 20 mg/ml antibody, without lapatinib): did not affect the level of tyrosine phosphorylation for EGFR or HER2 | NRG1-induced phosphorylation of HER3 (HER3 [5]): inhibited NRG1-induced phosphorylation of HER3; also recorded: inhibited NRG-1 induced phosphorylation of HER3 | tyrosine phosphorylation level of HER2 (HER2 [6]; without lapatinib): did not affect the level of tyrosine phosphorylation for EGFR or HER2 | tyrosine phosphorylation levels of HER2 (HER2 [6]; 20 μg/ml antibody, without lapatinib): did not affect tyrosine phosphorylation levels of HER2 | tumor volume ([10]; antibodies without Erbitux): reduced tumor volume | tumor volume ([10]; in combination with Erbitux): reduced tumor volume more than administration of Erbitux alone | blocking of NRG1 binding to HER3 (ELISA) (recombinant soluble HER3 [11]): inhibited binding of NRG1 to HER3; also recorded: blocks ligand binding to HER3 | epitopes of HER3 bound (recombinant soluble HER3 [12]): bind different epitopes of HER3; also recorded: recognize different epitopes on HER3 | binding specificity by ELISA [13]: specifically bind HER3; also recorded: specific binding | inhibition of ligand-induced HER3 activation (HER3 [14]): ability to inhibit ligand-induced HER3 activation in human cancer cells lines
